Consider four molecules from US20210032351A1 (XDCEXPLORER SHANGHAI, published 2021).

Values joined by “and” are separate entries in the source; they are usually repeats but may differ in a detail not shown here. Equal values may be shown once. Read-outs that look alike come from different tables or passages of the source. Ends that are not written are not given here. * marks the point of attachment. Biotin = O=C1N[C@H]2[C@H](CS[C@H]2CCCCC(=O)*)N1

As usually defined, the EC50 (read off the curve) is the concentration at which the effect is half-maximal.

The target in experiment [1] is human wild-type EGFR protein on the cell surface (human) (UniProt P00533). Briefly: FACS on normal human primary hepatocytes.
For experiment [2], the target named is T1, pep14 (cysteine pairing not given here).
T1 peptide: GSCVRACGADSYEMEEK(Biotin)
Nature of the experiment: peptide dot matrix ELISA. For orientation: An ELISA detects its analyte on a solid surface through an enzyme-linked reagent.

The target in experiment [3] is T2, pep20 (cysteine pairing not given here).
T2 peptide: CGADSYEMEEDGVRKCK(Biotin)
Nature of the experiment: peptide dot matrix ELISA.

Experiment [4] has as its target T3, pep04.
T3 sequence (peptide, C-terminal K(Biotin)): KKGNYVVTDHGSCVRAK
Briefly: peptide dot matrix ELISA.

The target in experiment [5] is T4, pep21.
T4 peptide: GADSYEMEEDGVRKCKK(Biotin)
Nature of the experiment: peptide dot matrix ELISA.

Experiment [6] deals with T5, pep07 (cysteine pairing not given here).
T5 peptide: NYVVTDHGSCVRACGAK(Biotin)
Briefly: peptide dot matrix ELISA.

Experiment [7] concerns the target T6, pep05 (cysteine pairing not given here).
T6 peptide: KGNYVVTDHGSCVRACK(Biotin)
Nature of the experiment: peptide dot matrix ELISA.

The target of experiment [8] is T7, pep06 (cysteine pairing not given here).
T7 peptide: GNYVVTDHGSCVRACGK(Biotin)
Briefly: peptide dot matrix ELISA.

The target of experiment [9] is T8, pep13 (cysteine pairing not given here).
T8 peptide: HGSCVRACGADSYEMEK(Biotin)
Briefly: peptide dot matrix ELISA.

Experiment [10] deals with T9, pep15 (cysteine pairing not given here).
T9 peptide: SCVRACGADSYEMEEDK(Biotin)
Nature of the experiment: peptide dot matrix ELISA.

For experiment [11], the target named is T10, pep19.
T10 sequence (peptide, C-terminal K(Biotin)): ACGADSYEMEEDGVRKK
Briefly: peptide dot matrix ELISA.

For experiment [12], the target named is human EGFRvIII protein on the cell surface (human) (UniProt P00533). Nature of the experiment: FACS on U87MG-EGFRvIII cells.
Experiment [13] deals with human wild-type EGFR protein on the cell surface (human) (UniProt P00533). Briefly: FACS on CHOk1-EGFR cells.
Experiment [14] has as its target human EGFRvIII-hFc protein (human) (UniProt P00533). Briefly: ELISA, EGFRvIII-hFc coated.
The target is the same in experiment [15]. Nature of the experiment: ELISA, EGFRvIII-hFc coated. This is another data set of the same source.
Experiment [16] addresses human wild-type EGFR protein on the cell surface (human) (UniProt P00533). Briefly: FACS on A431 tumor cells.
In experiment [17] the target is human EGFRvIII protein on the cell surface (human) (UniProt P00533). Briefly: FACS on CHOk1-EGFRvIII cells.
Experiment [18] deals with T11, human EGFRvIII-hFc protein (human, UniProt P00533 25-645).
T11 construct: extracellular domain; made in HEK293 cells, purified on protein A; also called immunogen A; hFc-tagged EGFRvIII protein; not shown: human IgG Fc fragment (hFc) of the pCpC vector
Nature of the experiment: ELISA, plate coated with human EGFRvIII-hFc, HRP secondary antibody, absorbance at 450 nm. On the procedure:
The purified immunogen A (EGFRvIII-hFc) obtained in example 1 (for the preparation method, see step (I) in example 1) is diluted with PBS to a final concentration of 1.0 μg/mL, and then added to a 96-well ELISA plate at 100 μl/well. The plate is sealed with a plastic film and incubated at 4° C. overnight. The next day, the plate is washed twice with a plate washing solution [PBS+0.01% (v/v) Tween20], and added with a blocking solution [PBS+0.01% (v/v) Tween20+1% (w/w) BSA] for blocking 2 hours at room temperature. […] The plate is incubated for 2 hours at 37° C., and then washed 3 times with the plate washing solution [PBS+0.01% (v/v) Tween20]. The plate is added with an HRP (horseradish peroxidase) labeled secondary antibody (purchased from Sigma), incubated at 37° C. for 2 hours, and then washed 3 times with the plate washing solution [PBS+0.01% (v/v) Tween20]. The plate is added with 100 μl of TMB substrate/well, incubated for 30 minutes at room temperature, and then added with 100 μl of stopping solution (1.0N HCl)/well. A450 nm value is read using an ELISA plate reader (SpectraMax 384plus, purchased from Molecular Device), and the results are shown in FIG. 11 and table 19.

Experiment [19] concerns the target T12, human EGFRvIII protein, full length, on transfected cells (human, UniProt P00533 25-1210).
T12 construct: whole, on cells; stably transfected CHO-K1, U87MG and HEK293(F) cells; also called hEGFRvIII; mutant EGFRvIII protein
Briefly: FACS on U87MG-EGFRvIII cells, Alexa 488 secondary antibody, mean fluorescence intensity. On the procedure: The preparation of U87MG-EGFRvIII required for FACS detection is as described in the preparation of the immunogen B in example 1. Normal human primary hepatocytes are purchased from BioreclamationIVT, and A431 tumor cells are purchased from ATCC. […] The cells are washed twice with the HBSS buffer and are counted, and then the cells are diluted with the HBSS buffer to 2×10⁶ cells/ml, added with 1% goat serum blocking solution, with the percentage being the mass percentage, and incubated on ice for 30 minutes, and then centrifugally washed twice with the HBSS buffer. […] The plate is centrifugally washed twice with the FACS buffer, added with 100 μL/well of a 1:1000 diluted fluorescence (Alexa 488) labeled secondary antibody (purchased from Invitrogen), and incubated on ice for 1 hour. […] The cells are resuspended in 100 μL of the FACS buffer, and the results are detected and analyzed by FACS (FACS Calibur, purchased from BD). Data analysis is performed by using the software (CellQuest) to obtain the mean fluorescence intensity (MFI) of the cells. Data is further analyzed by using the software (GraphPad Prism5) to perform data fitting and calculate EC50.

For experiment [20], the target named is T13, pep17.
T13 peptide: VRACGADSYEMEEDGVK(Biotin)
Briefly: peptide dot matrix ELISA.

Experiment [21] deals with T14, pep33 (cysteine pairing not given here).
T14 peptide: RKCKKCEGPCRKVCNGK(Biotin)
Briefly: peptide dot matrix ELISA.

The target of experiment [22] is T15, pep01.
T15 peptide: LEEKKGNYVVTDHGSCK(Biotin)
Briefly: peptide dot matrix ELISA.

The target in experiment [23] is T16, pep25 (cysteine pairing not given here).
T16 peptide: YEMEEDGVRKCKKCEGK(Biotin)
Briefly: peptide dot matrix ELISA.

Experiment [24] addresses T17, pep30 (cysteine pairing not given here).
T17 peptide: DGVRKCKKCEGPCRKVK(Biotin)
Briefly: peptide dot matrix ELISA.

Experiment [25] addresses T18, pep11 (cysteine pairing not given here).
T18 peptide: TDHGSCVRACGADSYEK(Biotin)
Nature of the experiment: peptide dot matrix ELISA.

The target of experiment [26] is T19, pep10 (cysteine pairing not given here).
T19 peptide: VTDHGSCVRACGADSYK(Biotin)
Briefly: peptide dot matrix ELISA.

The target in experiment [27] is T20, pep08 (cysteine pairing not given here).
T20 peptide: YVVTDHGSCVRACGADK(Biotin)
Briefly: peptide dot matrix ELISA.

Experiment [28] deals with T21, pep28 (cysteine pairing not given here).
T21 peptide: EEDGVRKCKKCEGPCRK(Biotin)
Briefly: peptide dot matrix ELISA.

In experiment [29] the target is T22, pep31 (cysteine pairing not given here).
T22 peptide: GVRKCKKCEGPCRKVCK(Biotin)
Briefly: peptide dot matrix ELISA.

The target of experiment [30] is T23, pep35 (cysteine pairing not given here).
T23 peptide: CKKCEGPCRKVCNGIGK(Biotin)
Briefly: peptide dot matrix ELISA.

Experiment [31] deals with T24, pep34 (cysteine pairing not given here).
T24 peptide: KCKKCEGPCRKVCNGIK(Biotin)
Nature of the experiment: peptide dot matrix ELISA.

Experiment [32] concerns the target T25, pep18.
T25 peptide: RACGADSYEMEEDGVRK(Biotin)
Nature of the experiment: peptide dot matrix ELISA.

Experiment [33] deals with T26, pep09 (cysteine pairing not given here).
T26 peptide: VVTDHGSCVRACGADSK(Biotin)
Nature of the experiment: peptide dot matrix ELISA.

For experiment [34], the target named is T27, pep16 (cysteine pairing not given here).
T27 peptide: CVRACGADSYEMEEDGK(Biotin)
Nature of the experiment: peptide dot matrix ELISA.

Experiment [35] concerns the target T28, pep04.
T28 peptide: KKGNYVVTDHGSCVRAK(Biotin)
Nature of the experiment: peptide dot matrix ELISA.

The target in experiment [36] is T29, pep26 (cysteine pairing not given here).
T29 peptide: EMEEDGVRKCKKCEGPK(Biotin)
Nature of the experiment: peptide dot matrix ELISA.

In experiment [37] the target is T30, human EGFR protein (wild-type), on cells (human, UniProt P00533 25-1210).
T30 construct: whole, on cells; transfected on CHO-K1 cells; endogenous on the human cell lines; the cell is named under assay; also called wild-type EGFR; hEGFR
Briefly: FACS on CHOK-EGFR cells.

In experiment [38] the target is T12, human EGFRvIII protein, full length, on …. Nature of the experiment: FACS on CHOK-EGFRvIII cells.
Experiment [39] deals with T11, human EGFRvIII-hFc protein. Briefly: ELISA, coated EGFRvIII-hFc. As for the experimental part: The plate is incubated for 2 hours at 37° C., and then washed 3 times with the plate washing solution [PBS+0.01% (v/v) Tween20]. The plate is added with an HRP (horseradish peroxidase) labeled secondary antibody (purchased from Sigma), incubated at 37° C. for 2 hours, and then washed 3 times with the plate washing solution [PBS+0.01% (v/v) Tween20]. The plate is added with 100 μl of TMB substrate/well, incubated for 30 minutes at room temperature, and then added with 100 μl of stopping solution (1.0N HCl)/well. A450 nm value is read using an ELISA plate reader (SpectraMax 384plus, purchased from Molecular Device), and the results are shown in FIG. 11 and table 19.

In the case of hIgG (antibody), the values for the MFI in experiment [1] and in [16] were 219 MFI and 388 MFI, respectively. Besides, the ELISA signal in experiment [2] was 0.07; in experiment [3], 0.12 and 0.1; in experiment [4], 0.05 and 0.06; in experiment [5], 0.06; in [6], 0.05; in [7], 0.05 and 0.06. The ELISA signal was 0.07 and 0.05 in experiment [8]; 0.06 in experiment [9]; 0.05 and 0.06 in experiment [10]; 0.05 in experiment [11]. The Maximum mean fluorescence intensity in experiment [12] worked out at 0 MFI; in [13], 144 MFI; in experiment [17], 133 MFI. Further, the Maximum OD450 value was determined as 0.1 OD450 in experiment [14] and 0.17 OD450 in [15].

B1: Chimeric antibody 63A10 (antibody, human IgG1, V domains shown)
VH: QVQLQQSGAELARPGASVKMSCKASGYTFISFTMHWVKQRPGQGLEWIGYINPNSGYTKYNQKFKDKATLTAGQSSSTAYMQLSSLTSEDSAVYYCTRGGGRGFAYWGQGTLVTVSA
VL: DILMTQSPSSMSVSLGDTVTITCHASQDINSNIGWLQQKPGKSFKALIYHGTNLEDGVPSRFSGSGSGADYSLTISSLESEDFADYYCVQYAQFPFTFGSGTKLEIK
notes: also called c63A10A7
Consider B1, for which the “EC50 (read off the curve)” value is roughly 0.03 nM in [18] and roughly 2 nM in experiment [19].

B2: Chimeric antibody 63A10 (antibody, V domains shown)
VH: QVQLQQSGAELARPGASVKMSCKASGYTFISFTMHWVKQRPGQGLEWIGYINPNSGYTKYNQKFKDKATLTAGQSSSTAYMQLSSLTSEDSAVYYCTRGGGRGFAYWGQGTLVTVSA
VL: DILMTQSPSSMSVSLGDTVTITCHASQDINSNIGWLQQKPGKSFKALIYHGTNLEDGVPSRFSGSGSGADYSLTISSLESEDFADYYCVQYAQFPFTFGSGTKLEIK
notes: also called c63A10A7
In the case of B2, the ELISA signal turned out to be 0.05 in experiment [20]; 0.07 in experiment [21]; 0.05 in experiment [22]; 0.06 in experiment [23]; 0.06 in experiment [24]; 0.05 in experiment [25]. Further, the ELISA signal in [26] turned out to be 0.05; in experiment [27] it was 0.05; in [28], 0.06; in [29] it was 0.06; in experiment [30], 0.07; in [31], 0.07. The ELISA signal in experiment [32] was determined as 0.05; in experiment [33], 0.05; in [34], 0.05; in [35], 0.06; in [36], 0.33.

B3: c75G7C6-3 (antibody, human IgG1, V domains shown)
VH: EVQLQQSGPELVKPGASVKIPCKASGYTFTDYNMDWVKQSHGKSLEWIGDINPNNGDTIYNQKFKGKATLTVDKSSSTAYMELRSLTSEDTAVYYCARGDYEGYYPVYYAMDYWGQGTSVTVSS
VL: ENVLTQSPAIMSASPGEKVTMTCRASSSVSSSYLHWYQQKSGASPKLWIFSTSNLAAGVPARFSGSGSGTSYSLTVSSVEAEDAATYYCQQYSGYPLTFGAGTKLELK
notes: chimeric, human IgG1 / kappa; DG of heavy chain CDR3 mutated to EG; also called DG/EG mutant
Take B3: the entries for the “fold decrease in binding ability compared to the wild-type chimeric antibody c75G7C6” value in experiment [37], in experiment [38] and in [39] were 3 fold, 2.5 fold and 22 fold, respectively.
